In paper PMC6303335:

Target: VACV B18
Test: SPR

Substance: human IFNα-2b
- koff: 0.000225 s⁻¹
